In publication PMC3115021, “Dynamics of Cdk1 Substrate Specificity during the Cell Cycle” (Molecular Cell, 2011):

Columns and labels:
Experiment in all cases: Quantitative phosphorylation assay of T33-Sic1ΔC constructs and recombinant substrates
Format in all cases: biochemical
Details in all cases: Table S2; purified protein substrate; relative values, not divided by [S]
Clb3hpm-Cdk1 = target: T1, Clb3hpm-Cdk1 (Saccharomyces cerevisiae, UniProt P00546+P24870)
T1 construct: made in house; host or cells: S. cerevisiae strain MK0168 (gal-CLB3hpm-TAP, sic1 deleted); Cks1 from bacteria
Procedure: (§1) For the quantitative phosphorylation assays of T33-Sic1ΔC constructs and recombinant substrates, substrate concentrations were kept in the range of 0.5–2 μM (in the linear [S] versus v0 range, several-fold below the estimated KM value), and initial velocity conditions were defined as an initial substrate turnover of up to 10% of the total turnover. For the steady-state peptide kinetics of the Histone peptide PKTPKKAKKL, a similar assay composition was used as for protein substrates, and phosphocellulose paper was used for the quantification of the phosphorylated substrate.
(§2) Supplemental Experimental Procedures
(§3) Plasmid constructs and yeast strains
(§4) For tandem affinity purification (TAP) of cyclin-Cdk1 complexes, the cyclin genes were cloned into the 2 micron vector pRSAB1234 containing a GAL1 promoter and the C-terminal TAP-tag. To purify different 6His-T33-Sic1ΔC forms for kinase assays, the C-terminally truncated fragment of Sic1 (with a stop codon inserted after amino acid 215) was cloned into the NheI/BamHI site of the bacterial expression vector pET28a (Invitrogen). Mutagenesis of cyclins or substrates was performed using single-stranded pRSAB1234 or pET28a vector constructs as templates. The triple mutants in the hydrophobic patch (hpm) of Clb5 and Clb2 were described previously (Loog and Morgan, 2005), and the hpm of Clb3 (Phe-201, Leu-205 and Trp-208 mutated to alanines) was designed according to sequence homology with other B-type cyclins. In T33-Sic1ΔC constructs, the other Cdk sites bearing the consensus motif S/T-P were mutated to Ala-Ala in order to prevent any possible (pseudo)substrate competition. The other Cdk substrates were cloned as full-length forms into bacterial expression vectors pET28a or pGEX-4T-1. Cdh1 was purified using the baculovirus system and was a kind gift from Monica Rodrigo-Brenni (UCSF). […]
The […]
(§5) pRSAB1234 analogously to the cyclin-Cdk1 complexes. For C-terminal tagging of cyclin genes in their chromosomal loci, the Pringle method was applied (Longtine et al., 1998). Lists of plasmid […]
(§6) The TAP method was applied for purification of cyclin-Cdk1 complexes and Swe1 as described previously for Clb5-TAP-Cdk1 and Clb2-TAP-Cdk1 (Puig et al., 2001; Ubersax et al., 2003). […]
(§7) tagged recombinant T33-Sic1ΔC constructs and substrates were cloned into the pET28a vector and purified by standard cobalt affinity chromatography and elution with 200 mM imidazole. 6His-Fin1 was purified as described previously (Woodbury and Morgan, 2007). Substrates cloned into the pGEX-4T-1 were purified on glutathione agarose columns using 5 mM reduced glutathione for elution. Cks1 was purified as described previously (Reynard et al., 2000). The optimal working concentration for purified Cks1 was taken as 500 nM based on optimization performed for cyclin-Cdk1 preparations and T33-Sic1ΔC as a substrate.
(§8) For the quantitative phosphorylation assays of T33-Sic1ΔC constructs and recombinant substrates, substrate concentrations were kept in the range of 0.5-2 μM (in the linear [S] vs v0 range, several-fold below the estimated KM value), and the initial velocity conditions were defined as an initial substrate turnover ranging up to 10% of the total turnover. The latter was estimated by a long-term incubation with excess amounts of cyclin-Cdk1 and 32P-γ-ATP in the standard reaction mixture given below. About 1-10 nM of purified kinase complex was used, reaction aliquots were taken at two or more time points, and the reaction was stopped by SDS-PAGE sample buffer. The relative kcat/KM values for the substrates were calculated as the ratio of v0/[S], which was determined from at least two independent experiments. The basal composition of the assay mixture contained 50 mM Hepes, pH 7.4, 100 mM NaCl, 0.1% NP-40, 20 mM imidazole, 0.1 mg/ml 2HA peptide, 2% glycerol, 2 mM EGTA, 0.2 mg/ml BSA, […], and 500 μM ATP (with added 32P-γ-ATP (Perkin Elmer)).
(§9) About 1-10 nM of purified kinase complex was used, reaction aliquots were taken at two or more […]

Clb2hpm-Cdk1 = target: T2, Clb2hpm-Cdk1 (Saccharomyces cerevisiae, UniProt P00546)
T2 construct: made in house; host or cells: S. cerevisiae strain DOM0964 (gal-CLB2hpm-TAP, sic1 deleted); Cks1 from bacteria
Procedure: as §1, §2, §3, §4
The […]
as §5, §6, §7, §8, §9

Clb5hpm-Cdk1 = target: T3, Clb5hpm-Cdk1 (Saccharomyces cerevisiae, UniProt P00546)
T3 construct: made in house; host or cells: S. cerevisiae strain DOM0963 (gal-CLB5hpm-TAP, sic1 deleted); Cks1 from bacteria
Procedure: as §1, §2, §3, §4
The […]
as §5, §6, §7, §8, §9

Clb3-Cdk1 = target: T4, Clb3-Cdk1 (Saccharomyces cerevisiae, UniProt P00546+P24870)
T4 construct: We purified the four cyclin-Cdk1 complexes from yeast; made in house; host or cells: S. cerevisiae strain DOM0957 (gal-CLB3-TAP, sic1 deleted); Cks1 from bacteria

Clb5-Cdk1 = target: T5, Clb5-Cdk1 (Saccharomyces cerevisiae, UniProt P00546+P30283)
T5 construct: We purified the four cyclin-Cdk1 complexes from yeast; made in house; host or cells: S. cerevisiae strain DOM0076 (gal-CLB5-TAP, sic1 deleted); Cks1 from bacteria

Clb2-Cdk1 = target: T6, Clb2-Cdk1 (Saccharomyces cerevisiae, UniProt P00546+P24869)
T6 construct: We purified the four cyclin-Cdk1 complexes from yeast; made in house; host or cells: S. cerevisiae strain DOM0077 (gal-CLB2-TAP, sic1 deleted); Cks1 from bacteria

Cln2-Cdk1 = target: T7, Cln2-Cdk1 (Saccharomyces cerevisiae, UniProt P00546+P20438)
T7 construct: We purified the four cyclin-Cdk1 complexes from yeast; made in house; host or cells: S. cerevisiae strain DMY305 (galactose-induced); Cks1 from bacteria
T7 sequence (P00546 2-298 limits assumed): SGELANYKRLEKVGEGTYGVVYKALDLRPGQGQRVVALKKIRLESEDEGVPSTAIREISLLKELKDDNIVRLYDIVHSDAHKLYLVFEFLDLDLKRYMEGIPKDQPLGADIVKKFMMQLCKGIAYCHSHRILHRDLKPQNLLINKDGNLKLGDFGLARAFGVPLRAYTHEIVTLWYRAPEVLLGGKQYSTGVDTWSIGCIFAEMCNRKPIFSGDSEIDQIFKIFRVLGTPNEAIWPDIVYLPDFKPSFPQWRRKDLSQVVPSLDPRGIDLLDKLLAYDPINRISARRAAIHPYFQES
T7 sequence (P20438 whole entry partner): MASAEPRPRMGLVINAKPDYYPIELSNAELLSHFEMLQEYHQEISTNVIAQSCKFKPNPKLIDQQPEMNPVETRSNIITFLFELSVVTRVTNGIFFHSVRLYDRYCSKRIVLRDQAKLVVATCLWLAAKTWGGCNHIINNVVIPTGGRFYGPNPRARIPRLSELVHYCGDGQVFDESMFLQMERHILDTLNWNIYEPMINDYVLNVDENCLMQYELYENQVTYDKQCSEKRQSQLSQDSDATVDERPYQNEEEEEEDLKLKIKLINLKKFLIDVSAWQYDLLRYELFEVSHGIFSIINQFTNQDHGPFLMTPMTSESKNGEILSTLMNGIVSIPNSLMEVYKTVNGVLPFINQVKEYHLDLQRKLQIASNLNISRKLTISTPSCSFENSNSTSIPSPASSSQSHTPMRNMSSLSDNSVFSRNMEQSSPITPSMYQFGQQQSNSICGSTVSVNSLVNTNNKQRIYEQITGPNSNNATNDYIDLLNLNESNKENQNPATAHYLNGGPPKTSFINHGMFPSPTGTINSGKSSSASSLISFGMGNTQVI
T7 sequence (P20486 whole entry partner): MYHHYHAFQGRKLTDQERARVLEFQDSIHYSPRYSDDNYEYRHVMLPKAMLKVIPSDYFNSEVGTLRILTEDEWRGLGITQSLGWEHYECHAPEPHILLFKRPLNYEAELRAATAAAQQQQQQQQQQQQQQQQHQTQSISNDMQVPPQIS

T4 sequence (P00546 2-298 limits assumed): as the sequence (P00546 2-298 limits assumed) above
T4 sequence (P24870 whole entry partner): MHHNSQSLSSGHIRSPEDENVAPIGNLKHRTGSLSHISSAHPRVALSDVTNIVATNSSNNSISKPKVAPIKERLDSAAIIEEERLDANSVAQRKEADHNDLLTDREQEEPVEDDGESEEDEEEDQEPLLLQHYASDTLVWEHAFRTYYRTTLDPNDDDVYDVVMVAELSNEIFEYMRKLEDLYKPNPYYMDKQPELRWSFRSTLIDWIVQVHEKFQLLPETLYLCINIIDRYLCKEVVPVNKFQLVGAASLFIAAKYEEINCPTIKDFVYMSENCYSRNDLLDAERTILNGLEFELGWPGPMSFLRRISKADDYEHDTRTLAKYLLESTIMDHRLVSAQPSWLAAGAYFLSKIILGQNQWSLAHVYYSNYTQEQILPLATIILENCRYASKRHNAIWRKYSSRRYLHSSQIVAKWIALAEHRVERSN
T4 sequence (P20486 whole entry partner): as the sequence (P20486 whole entry partner) above
T3 sequence (P00546 2-298 limits assumed): as the sequence (P00546 2-298 limits assumed) above
T2 sequence (P00546 2-298 limits assumed): as above
T6 sequence (P00546 2-298 limits assumed): as above
T6 sequence (P24869 2-491 partner limits assumed): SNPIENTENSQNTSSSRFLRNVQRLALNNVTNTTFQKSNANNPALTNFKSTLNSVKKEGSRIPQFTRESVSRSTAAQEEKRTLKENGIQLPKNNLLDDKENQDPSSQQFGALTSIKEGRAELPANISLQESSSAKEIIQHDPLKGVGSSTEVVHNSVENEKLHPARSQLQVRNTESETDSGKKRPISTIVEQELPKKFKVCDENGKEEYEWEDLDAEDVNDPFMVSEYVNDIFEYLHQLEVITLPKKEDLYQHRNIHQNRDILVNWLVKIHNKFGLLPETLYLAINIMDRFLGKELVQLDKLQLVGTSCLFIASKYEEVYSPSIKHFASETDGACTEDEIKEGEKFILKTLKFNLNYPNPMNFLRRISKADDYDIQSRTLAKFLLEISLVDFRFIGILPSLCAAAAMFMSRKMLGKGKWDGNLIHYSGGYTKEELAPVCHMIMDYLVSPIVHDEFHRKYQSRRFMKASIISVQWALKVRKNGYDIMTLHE
T6 sequence (P20486 whole entry partner): as the sequence (P20486 whole entry partner) above
T5 sequence (P00546 2-298 limits assumed): as the sequence (P00546 2-298 limits assumed) above
T5 sequence (P30283 whole entry partner): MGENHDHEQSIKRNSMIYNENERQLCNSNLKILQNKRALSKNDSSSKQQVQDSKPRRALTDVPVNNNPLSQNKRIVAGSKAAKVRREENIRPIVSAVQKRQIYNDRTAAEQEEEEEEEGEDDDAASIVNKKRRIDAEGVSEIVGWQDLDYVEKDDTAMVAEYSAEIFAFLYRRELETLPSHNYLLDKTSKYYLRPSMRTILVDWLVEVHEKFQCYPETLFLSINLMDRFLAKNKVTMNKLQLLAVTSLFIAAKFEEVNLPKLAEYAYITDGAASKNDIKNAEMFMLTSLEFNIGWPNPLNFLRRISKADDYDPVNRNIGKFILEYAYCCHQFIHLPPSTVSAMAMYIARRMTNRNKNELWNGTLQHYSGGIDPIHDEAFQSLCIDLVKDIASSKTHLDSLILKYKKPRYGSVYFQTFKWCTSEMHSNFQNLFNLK
T5 sequence (P20486 whole entry partner): as the sequence (P20486 whole entry partner) above

B1: PXL1: purified yeast protein tested as Cdk1 substrate (protein, UniProt P36166 1-706, looked up)
Paxillin-like protein 1: MYNSIYGSPFPKINPKVRYKTALERAGFDTKPRNPFSSQRNASTGSLQASVKSPPITRQRNVSAAPSVPVTMKSAYTASSKSAYSSVKGESDIYPPPVLENSERRSVTPPKNSNFTSSRPSDISRSISRPSERASQEDPFRFERDLDRQAEQYAASRHTCKSPANKEFQAADNFPFNFEQEDAGNTEREQDLSPIERSFMMLTQNDTASVVNSMNQTDNRGVLDQKLGKEQQKEESSIEYESEGQQEDENDIESLNFEPDPKLQMNLENEPLQDDFPEAKQEEKNTEPKIPEINVTRESNTPSLTMNALDSKIYPDDNFSGLESSKEQKSPGVSSSSTKVEDLSLDGLNEKRLSITSSENVETPYTATNLQVEQLIAQLDDVSLSRNAKLDMNGNCLNAVDRKASRFKKSSAYLSGYPSMDIPVTQQTSIVQNSNTNLSRQTILVDKGDVDEDAPSESTTNGGTPIFYKFKQSNVEYSNNEGMGSQETFRTKLPTIEALQLQHKRNITDLREEIDNSKSNDSHVLPNGGTTRYSSDADYKETEPIEFKYPPGEGPCRACGLEVTGKRMFSKKENELSGQWHRECFKCIECGIKFNKHVPCYILGDEPYCQKHYHEENHSICKVCSNFIEGECLENDKVERFHVDCLNCFLCKTAITNDYYIFNGEIPLCGNHDMEALLKEGIDNATSSNDKNNTLSKRRTRLINFN
kcat/KM, Clb3hpm (Clb3hpm-Cdk1): 0.033 relative units
kcat/KM, Clb2hpm (Clb2hpm-Cdk1): 0.244 relative units
kcat/KM, Clb5hpm (Clb5hpm-Cdk1): 0.015 relative units
kcat/KM, Clb3 (Clb3-Cdk1): 0.139 relative units
kcat/KM, Clb5 (Clb5-Cdk1): 0.031 relative units
kcat/KM, Clb2 (Clb2-Cdk1): 0.571 relative units
kcat/KM, Cln2 (Cln2-Cdk1): 0.031 relative units

B2: SLI15: purified yeast protein tested as Cdk1 substrate (protein, UniProt P38283 1-698, looked up)
Inner centromere protein SLI15: MDWAIKAARKKTQRKPGSTRSIIETLDDLNNLTTDAHSEINQRLYESSEWLRNNVYMNTLKYEDKKMEESLISPENTHNKMDVEFPKMKGEYELSNSQNDAAKDVTKTPRNGLHNDKSITPKSLRRKEVTEGMNRFSIHDTNKSPVEPLNSVKVDANESEKSSPWSPYKVEKVLRESSKTSESPINTKRFDNQTWAAKEEMENEPILQALKKAESVKVKPPPNSGIARSQRRSNMFVPLPNKDPLIIQHIPPTKSSGSIPKVRTVKESPIAFKKKSTINSPAIRAVENSDTAGSTKASSVFDRLSSIPTKSFENKISRGNVGHKYSSSSIDLTGSPMKKVSQKFKSINSTDTDMQEALRDIFSVKNKITKNNSPKGKNSRKSSIPRFDKTSLKLTTHKKLAIIAEQKKKSKHSSDVHKTGSRPHSISPTKISVDSSSPSKEVKNYYQSPVRGYLRPTKASISPNKNKNLTTSQTPHRLKIKEKTLRKLSPNIADISKPESRKSKNYRLTNLQLLPPAEAERDDLKKKFDKRLSGIMRSQQEHHRRKQEKQKRMSHLEQDLKKQTSFSNDYKDIRLKESLAPFDNHVRDTINKNTAFSTDNILATINTVDHREIIGNVTPKIASVNDSLPEINTDSEDEASVTLAAWAKSPYLQEQLIRQQDINPQTIFGPIPPLHTDEIFPNPRLNRLKPRQIVPKRS
kcat/KM, Clb3hpm (Clb3hpm-Cdk1): 0.032 relative units
kcat/KM, Clb2hpm (Clb2hpm-Cdk1): 0.060 relative units
kcat/KM, Clb5hpm (Clb5hpm-Cdk1): 0.004 relative units
kcat/KM, Clb3 (Clb3-Cdk1): 0.141 relative units
kcat/KM, Clb5 (Clb5-Cdk1): 0.025 relative units
kcat/KM, Clb2 (Clb2-Cdk1): 0.109 relative units
kcat/KM, Cln2 (Cln2-Cdk1): 0.422 relative units

B3: SWI5: purified yeast protein tested as Cdk1 substrate (protein, UniProt P08153 1-709, looked up)
Transcriptional factor SWI5: MDTSNSWFDASKVQSLNFDLQTNSYYSNARGSDPSSYAIEGEYKTLATDDLGNILNLNYGETNEVIMNEINDLNLPLGPLSDEKSVKVSTFSELIGNDWQSMNFDLENNSREVTLNATSLLNENRLNQDSGMTVYQKTMSDKPHDEKKISMADNLLSTINKSEINKGFDRNLGELLLQQQQELREQLRAQQEANKKLELELKQTQYKQQQLQATLENSDGPQFLSPKRKISPASENVEDVYANSLSPMISPPMSNTSFTGSPSRRNNRQKYCLQRKNSSGTVGPLCFQELNEGFNDSLISPKKIRSNPNENLSSKTKFITPFTPKSRVSSATSNSANITPNNLRLDFKINVEDQESEYSEKPLGLGIELLGKPGPSPTKSVSLKSASVDIMPTIPGSVNNTPSVNKVSLSSSYIDQYTPRGKQLHFSSISENALGINAATPHLKPPSQQARHREGVFNDLDPNVLTKNTDNEGDDNEENEPESRFVISETPSPVLKSQSKYEGRSPQFGTHIKEINTYTTNSPSKITRKLTTLPRGSIDKYVKEMPDKTFECLFPGCTKTFKRRYNIRSHIQTHLEDRPYSCDHPGCDKAFVRNHDLIRHKKSHQEKAYACPCGKKFNREDALVVHRSRMICSGGKKYENVVIKRSPRKRGRPRKDGTSSVSSSPIKENINKDHNGQLMFKLEDQLRRERSYDGNGTGIMVSPMKTNQR
kcat/KM, Clb3hpm (Clb3hpm-Cdk1): 0.207 relative units
kcat/KM, Clb2hpm (Clb2hpm-Cdk1): 1.387 relative units
kcat/KM, Clb5hpm (Clb5hpm-Cdk1): 0.172 relative units
kcat/KM, Clb3 (Clb3-Cdk1): 1.686 relative units
kcat/KM, Clb5 (Clb5-Cdk1): 0.475 relative units
kcat/KM, Clb2 (Clb2-Cdk1): 2.961 relative units
kcat/KM, Cln2 (Cln2-Cdk1): 0.178 relative units
